# B1: mitochondrial antiviral signaling protein (MAVS): S366A (protein)
# parent chain: MPFAEDKTYKYICRNFSNFCNVDVVEILPYLPCLTARDQDRLRATCTLSGNRDTLWHLFNTLQRRPGWVEYFIAALRGCELVDLADEVASVYQSYQPRTSDRPPDPLEPPSLPAERPGPPTPAAAHSIPYNSCREKEPSYPMPVQETQAPESPGENSEQALQTLSPRAIPRNPDGGPLESSSDLAALSPLTSSGHQEQDTELGSTHTAGATSSLTPSRGPVSPSVSFQPLARSTPRASRLPGPTGSVVSTGTSFSSSSPGLASAGAAEGKQGAESDQAEPIICSSGAEAPANSLPSKVPTTLMPVNTVALKVPANPASVSTVPSKLPTSSKPPGAVPSNALTNPAPSKLPINSTRAGMVPSKVPTSMVLTKVSASTVPTDGSSRNEETPAAPTPAGATGGSSAWLDSSSENRGLGSELSKPGVLASQVDSPFSGCFEDLAISASTSLGMGPCHGPEENEYKSEGTFGIHVAENPSIQLLEGNPGPPADPDGGPRPQADRKFQEREVPCHRPSPGALWLQVAVTGVLVVTLLVVLYRRRLH
# B2: mitochondrial antiviral signaling protein (MAVS): Thiamet-G (protein)
# parent chain: B1 parent chain
# Tests used:
# [1] = SDD-AGE of MAVS aggregates, HEK293; details: glycan lost; control: wild type
# [2] = cycloheximide chase, HEK293 and A549; details: glycan gained; control: without Thiamet-G
Protein,oligomerisation [1],degradation_or_half_life [2]
B1,no change,–
B2,–,no change

# From paper PMC7884448
